Numbered stars: 1 amine (or outer) side, 2 acyl side, 3 side chain; on linkers, the order of the positions; unused ones are H or OH. Bridge positions count the residues as written; N and C are the ends. Square brackets hold non-standard residues; d marks the D form. Ends that are not written are not given here. X13 = (2S)‑2‑amino‑3‑(1-methylcyclopropyl)propanoic acid, CC1(C[C@H](N[*:1])C(=O)[*:2])CC1; Oic = O=C(O)[C@@H]1C[C@@H]2CCCC[C@@H]2N1; tBuAla = CC(C)(C)C[C@H](N)C(=O)O; Pen = CC(C)(S)[C@H](N)C(=O)O; NMeC = CN[C@@H](CS)C(=O)O; Orn = NCCC[C@H](N)C(=O)O; Nva = CCC[C@H](N)C(=O)O; Dap = NC[C@H](N)C(=O)O; Sar = CNCC(=O)O
T1: Recombinant human MASP1 enzyme (fragment corresponding to amino acids 297-699, C-terminal His Tag) (human, UniProt P48740 297-699)
T1 sequence: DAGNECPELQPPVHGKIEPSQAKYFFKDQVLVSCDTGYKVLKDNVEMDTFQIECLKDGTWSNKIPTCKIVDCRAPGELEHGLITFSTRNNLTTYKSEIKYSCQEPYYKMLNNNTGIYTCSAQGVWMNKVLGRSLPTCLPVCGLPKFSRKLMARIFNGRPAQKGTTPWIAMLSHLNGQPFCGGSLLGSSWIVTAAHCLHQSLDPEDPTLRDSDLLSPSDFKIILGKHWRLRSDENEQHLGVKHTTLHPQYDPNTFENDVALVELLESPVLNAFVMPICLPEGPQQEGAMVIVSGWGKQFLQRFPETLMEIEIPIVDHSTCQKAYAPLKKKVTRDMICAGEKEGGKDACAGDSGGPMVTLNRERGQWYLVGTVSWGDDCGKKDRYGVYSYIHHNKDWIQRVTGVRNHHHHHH


Legend:
[1] = molecular target: T1, Recombinant human MASP1 enzyme …; assay: cell-based or functional assay
[2] = molecular target: Recombinant human MASP2 enzyme (fragment corresponding to amino acids 297-686, C-terminal His Tag) (human, UniProt O00187 297-686); assay: cell-based or functional assay
Recombinant human MASP2 enzyme (fragment corresponding to amino acids 297-686, C-terminal His Tag), sequence (O00187 other isoform, or with tags, fused parts or gaps limits assumed): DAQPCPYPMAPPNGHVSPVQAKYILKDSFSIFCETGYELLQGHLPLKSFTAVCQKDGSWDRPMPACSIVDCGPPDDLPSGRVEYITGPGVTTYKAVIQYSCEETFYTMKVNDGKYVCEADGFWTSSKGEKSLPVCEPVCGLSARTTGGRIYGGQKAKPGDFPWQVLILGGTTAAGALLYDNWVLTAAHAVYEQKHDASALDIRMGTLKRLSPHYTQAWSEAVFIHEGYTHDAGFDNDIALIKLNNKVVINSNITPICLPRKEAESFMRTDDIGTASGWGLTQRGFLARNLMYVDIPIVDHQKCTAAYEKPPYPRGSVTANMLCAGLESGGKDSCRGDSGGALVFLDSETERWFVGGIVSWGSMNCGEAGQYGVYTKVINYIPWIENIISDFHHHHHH

| Binder | human MASP1 IC50 [1] | human MASP2 IC50 [2] |
| --- | --- | --- |
| [Sar]ICSRS[X13]PPI[Pen]IP-NH2 (disulfide 3-11; N-terminus assumed; SMILES CC[C@H](C)[C@H](NC(=O)CNC)C(=O)N[C@H]1CSSC(C)(C)[C@@H](C(=O)N[C@H](C(=O)N2CCC[C@H]2C(N)=O)[C@@H](C)CC)NC(=O)[C@H]([C@@H](C)CC)NC(=O)[C@@H]2CCCN2C(=O)[C@@H]2CCCN2C(=O)[C@H](CC2(C)CC2)NC(=O)[C@H](CO)NC(=O)[C@H](CCCNC(=N)N)NC(=O)[C@H](CO)NC1=O) [((N-Me)G)-IC+SRS-((2S)-2-amino-3-(1-methylcyclopropyl)propanoic acid)-PPI-(Pen)+IP-NH2] | 5.1 nM | 17 nM |
| [Sar]ICSRSLP[Oic]I[Pen]IPE-NH2 (disulfide 3-11; N-terminus assumed; SMILES CC[C@H](C)[C@H](NC(=O)CNC)C(=O)N[C@H]1CSSC(C)(C)[C@@H](C(=O)N[C@H](C(=O)N2CCC[C@H]2C(=O)N[C@@H](CCC(=O)O)C(N)=O)[C@@H](C)CC)NC(=O)[C@H]([C@@H](C)CC)NC(=O)[C@@H]2C[C@@H]3CCCC[C@@H]3N2C(=O)[C@@H]2CCCN2C(=O)[C@H](CC(C)C)NC(=O)[C@H](CO)NC(=O)[C@H](CCCNC(=N)N)NC(=O)[C@H](CO)NC1=O) [((N-Me)G)-IC+SRSLP-(Oic)-I-(Pen)+IPE-NH2] | 5 nM | 200 nM |
| [Sar]ICSRSLP[Oic]I[Pen]IPE-OH (disulfide 3-11; N-terminus assumed; SMILES CC[C@H](C)[C@H](NC(=O)CNC)C(=O)N[C@H]1CSSC(C)(C)[C@@H](C(=O)N[C@H](C(=O)N2CCC[C@H]2C(=O)N[C@@H](CCC(=O)O)C(=O)O)[C@@H](C)CC)NC(=O)[C@H]([C@@H](C)CC)NC(=O)[C@@H]2C[C@@H]3CCCC[C@@H]3N2C(=O)[C@@H]2CCCN2C(=O)[C@H](CC(C)C)NC(=O)[C@H](CO)NC(=O)[C@H](CCCNC(=N)N)NC(=O)[C@H](CO)NC1=O) [((N-Me)G)-IC+SRSLP-(Oic)-I-(Pen)+IPE-OH] | 5.1 nM | 180 nM |
| [Sar]ICSRSLP[Oic]I[Pen]IPQ-NH2 (disulfide 3-11; N-terminus assumed; SMILES CC[C@H](C)[C@H](NC(=O)CNC)C(=O)N[C@H]1CSSC(C)(C)[C@@H](C(=O)N[C@H](C(=O)N2CCC[C@H]2C(=O)N[C@@H](CCC(N)=O)C(N)=O)[C@@H](C)CC)NC(=O)[C@H]([C@@H](C)CC)NC(=O)[C@@H]2C[C@@H]3CCCC[C@@H]3N2C(=O)[C@@H]2CCCN2C(=O)[C@H](CC(C)C)NC(=O)[C@H](CO)NC(=O)[C@H](CCCNC(=N)N)NC(=O)[C@H](CO)NC1=O) [((N-Me)G)-IC+SRSLP-(Oic)-I-(Pen)+IPQ-NH2] | 5.2 nM | 190 nM |
| [Sar]ICSRSLP[Oic]I[Pen]I[5‑Azaspiro(2.4)heptane‑1‑carboxylic acid]-OH (disulfide 3-11) [((N-Me)G)-IC+SRSLP-(Oic)-I-(Pen)+I-((5-Azaspiro[2.4]heptane-1-carboxylic acid)-OH] | 5.1 nM | 100 nM |
| [dA]ICSRSLP[Oic]I[Pen]IPE-NH2 (disulfide 3-11; N-terminus assumed; SMILES CC[C@H](C)[C@H](NC(=O)[C@@H](C)N)C(=O)N[C@H]1CSSC(C)(C)[C@@H](C(=O)N[C@H](C(=O)N2CCC[C@H]2C(=O)N[C@@H](CCC(=O)O)C(N)=O)[C@@H](C)CC)NC(=O)[C@H]([C@@H](C)CC)NC(=O)[C@@H]2C[C@@H]3CCCC[C@@H]3N2C(=O)[C@@H]2CCCN2C(=O)[C@H](CC(C)C)NC(=O)[C@H](CO)NC(=O)[C@H](CCCNC(=N)N)NC(=O)[C@H](CO)NC1=O) [aIC+SRSLP-(Oic)-I-(Pen)+IPE-NH2] | 5 nM | 150 nM |
| [dA]ICSRSLP[Oic]I[Pen]IPE-OH (disulfide 3-11; N-terminus assumed; SMILES CC[C@H](C)[C@H](NC(=O)[C@@H](C)N)C(=O)N[C@H]1CSSC(C)(C)[C@@H](C(=O)N[C@H](C(=O)N2CCC[C@H]2C(=O)N[C@@H](CCC(=O)O)C(=O)O)[C@@H](C)CC)NC(=O)[C@H]([C@@H](C)CC)NC(=O)[C@@H]2C[C@@H]3CCCC[C@@H]3N2C(=O)[C@@H]2CCCN2C(=O)[C@H](CC(C)C)NC(=O)[C@H](CO)NC(=O)[C@H](CCCNC(=N)N)NC(=O)[C@H](CO)NC1=O) [aIC+SRSLP-(Oic)-I-(Pen)+IPE-OH] | 5.3 nM | 100 nM |
| [dA]ICSRSLP[Oic]I[Pen]IPQ-OH (disulfide 3-11; N-terminus assumed; SMILES CC[C@H](C)[C@H](NC(=O)[C@@H](C)N)C(=O)N[C@H]1CSSC(C)(C)[C@@H](C(=O)N[C@H](C(=O)N2CCC[C@H]2C(=O)N[C@@H](CCC(N)=O)C(=O)O)[C@@H](C)CC)NC(=O)[C@H]([C@@H](C)CC)NC(=O)[C@@H]2C[C@@H]3CCCC[C@@H]3N2C(=O)[C@@H]2CCCN2C(=O)[C@H](CC(C)C)NC(=O)[C@H](CO)NC(=O)[C@H](CCCNC(=N)N)NC(=O)[C@H](CO)NC1=O) [aIC+SRSLP-(Oic)-I-(Pen)+IPQ-OH] | 4.9 nM | 140 nM |
| AICSRS[tBuAla]P[Oic]I[NMeC]I-NH2 (disulfide 3-11; N-terminus assumed; SMILES CC[C@H](C)[C@H](NC(=O)[C@@H]1CSSC[C@H](NC(=O)[C@@H](NC(=O)[C@H](C)N)[C@@H](C)CC)C(=O)N[C@@H](CO)C(=O)N[C@@H](CCCNC(=N)N)C(=O)N[C@@H](CO)C(=O)N[C@@H](CC(C)(C)C)C(=O)N2CCC[C@H]2C(=O)N2[C@@H](C[C@@H]3CCCC[C@@H]32)C(=O)N[C@@H]([C@@H](C)CC)C(=O)N1C)C(N)=O) [AIC+SRS-((tBu)A)-P-(Oic)-I-((N-Me)C)+I-NH2] | 5.2 nM | 250 nM |

Results, then the binder that gave them:

| human MASP1 IC50 [1] | human MASP2 IC50 [2] | Binder |
| --- | --- | --- |
| 5.1 nM | 81 nM | [Dap]ICSRS[tBuAla]PPI[Pen]I-NH2 (disulfide 3-11; N-terminus assumed; SMILES CC[C@H](C)[C@H](NC(=O)[C@H]1NC(=O)[C@H]([C@@H](C)CC)NC(=O)[C@@H]2CCCN2C(=O)[C@@H]2CCCN2C(=O)[C@H](CC(C)(C)C)NC(=O)[C@H](CO)NC(=O)[C@H](CCCNC(=N)N)NC(=O)[C@H](CO)NC(=O)[C@@H](NC(=O)[C@@H](NC(=O)[C@@H](N)CN)[C@@H](C)CC)CSSC1(C)C)C(N)=O) [(Dap)-IC+SRS-((tBu)A)-PPI-(Pen)+I-NH2] |
| 5.2 nM | 19 nM | A[Nva]CSRS[tBuAla]PPI[Pen]IPD-NH2 (disulfide 3-11; N-terminus assumed; SMILES CCC[C@H](NC(=O)[C@H](C)N)C(=O)N[C@H]1CSSC(C)(C)[C@@H](C(=O)N[C@H](C(=O)N2CCC[C@H]2C(=O)N[C@@H](CC(=O)O)C(N)=O)[C@@H](C)CC)NC(=O)[C@H]([C@@H](C)CC)NC(=O)[C@@H]2CCCN2C(=O)[C@@H]2CCCN2C(=O)[C@H](CC(C)(C)C)NC(=O)[C@H](CO)NC(=O)[C@H](CCCNC(=N)N)NC(=O)[C@H](CO)NC1=O) [A-(Nva)-C+SRS-((tBu)A)-PPI-(Pen)+IPD-NH2] |
| 5.3 nM | 130 nM | [dA]ICSRSLP[Oic]I[Pen]IPQ-NH2 (disulfide 3-11; N-terminus assumed; SMILES CC[C@H](C)[C@H](NC(=O)[C@@H](C)N)C(=O)N[C@H]1CSSC(C)(C)[C@@H](C(=O)N[C@H](C(=O)N2CCC[C@H]2C(=O)N[C@@H](CCC(N)=O)C(N)=O)[C@@H](C)CC)NC(=O)[C@H]([C@@H](C)CC)NC(=O)[C@@H]2C[C@@H]3CCCC[C@@H]3N2C(=O)[C@@H]2CCCN2C(=O)[C@H](CC(C)C)NC(=O)[C@H](CO)NC(=O)[C@H](CCCNC(=N)N)NC(=O)[C@H](CO)NC1=O) [aIC+SRSLP-(Oic)-I-(Pen)+IPQ-NH2] |
| 4.9 nM | 200 nM | [dA]ICSRSLP[Oic]I[Pen]IP-OH (disulfide 3-11; N-terminus assumed; SMILES CC[C@H](C)[C@H](NC(=O)[C@@H](C)N)C(=O)N[C@H]1CSSC(C)(C)[C@@H](C(=O)N[C@H](C(=O)N2CCC[C@H]2C(=O)O)[C@@H](C)CC)NC(=O)[C@H]([C@@H](C)CC)NC(=O)[C@@H]2C[C@@H]3CCCC[C@@H]3N2C(=O)[C@@H]2CCCN2C(=O)[C@H](CC(C)C)NC(=O)[C@H](CO)NC(=O)[C@H](CCCNC(=N)N)NC(=O)[C@H](CO)NC1=O) [aIC+SRSLP-(Oic)-I-(Pen)+IP-OH] |
| 4.9 nM | 550 nM | [Sar]ICSRSLP[Oic]I[Pen]I-OH (disulfide 3-11; N-terminus assumed; SMILES CC[C@H](C)[C@H](NC(=O)[C@H]1NC(=O)[C@H]([C@@H](C)CC)NC(=O)[C@@H]2C[C@@H]3CCCC[C@@H]3N2C(=O)[C@@H]2CCCN2C(=O)[C@H](CC(C)C)NC(=O)[C@H](CO)NC(=O)[C@H](CCCNC(=N)N)NC(=O)[C@H](CO)NC(=O)[C@@H](NC(=O)[C@@H](NC(=O)CNC)[C@@H](C)CC)CSSC1(C)C)C(=O)O) [((N-Me)G)-IC+SRSLP-(Oic)-I-(Pen)+I-OH] |
| 4.8 nM | 170 nM | [Orn]ICSRS[tBuAla]PPICI-NH2 (disulfide 3-11; N-terminus assumed; SMILES CC[C@H](C)[C@H](NC(=O)[C@@H]1CSSC[C@H](NC(=O)[C@@H](NC(=O)[C@@H](N)CCCN)[C@@H](C)CC)C(=O)N[C@@H](CO)C(=O)N[C@@H](CCCNC(=N)N)C(=O)N[C@@H](CO)C(=O)N[C@@H](CC(C)(C)C)C(=O)N2CCC[C@H]2C(=O)N2CCC[C@H]2C(=O)N[C@@H]([C@@H](C)CC)C(=O)N1)C(N)=O) [(Orn)-IC+SRS-((tBu)A)-PPIC+I-NH2] |
